# Measurements published in PMC5389854, “Functional analysis of the GmESR1 gene associated with soybean regeneration”.
# B1: mGCC-box probe (dsDNA)
# DNA 1: ATCCATAAGATCCTCCACTAAAATAAGACCGATCAA
# DNA 2: TTGATCGGTCTTATTTTAGTGGAGGATCTTATGGAT
# Target: GmESR1 (Glycine max cv. Dongnong 50, UniProt K7K6B8 5-391)
# Experiment: EMSA; EMSA as in Kass et al. (2000); buffer, salt, pH and temperature not stated
# Details: protein: recombinant; tags: His (pET-29b); label: digoxigenin-ddUTP; blunt
# Sequence of GmESR1 (K7K6B8 entry or part of it): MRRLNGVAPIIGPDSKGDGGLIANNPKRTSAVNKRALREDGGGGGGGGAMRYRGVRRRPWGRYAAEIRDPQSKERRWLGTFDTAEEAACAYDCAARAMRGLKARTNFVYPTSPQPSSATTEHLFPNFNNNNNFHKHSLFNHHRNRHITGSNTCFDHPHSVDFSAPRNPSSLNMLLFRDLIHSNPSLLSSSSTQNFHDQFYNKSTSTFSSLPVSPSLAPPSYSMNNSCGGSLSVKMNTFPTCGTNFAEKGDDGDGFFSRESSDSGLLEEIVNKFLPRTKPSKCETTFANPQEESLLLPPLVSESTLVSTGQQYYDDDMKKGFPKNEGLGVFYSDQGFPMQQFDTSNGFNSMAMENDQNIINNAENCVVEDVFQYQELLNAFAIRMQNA
binder,measurement,value
B1,binding result,no binding
